Km and kcat data for one substance are collected here from publication PMC11989107, “Biochemical and Structural Characterization of a Highly Glucose-Tolerant β-Glucosidase from the Termite Reticulitermes perilucifugus” (International Journal of Molecular Sciences, 2025).

This data set concerns O=[N+]([O-])c1ccc(O[C@@H]2O[C@H](CO)[C@@H](O)[C@H](O)[C@H]2O)cc1. Briefly: purified protein. The settings on record: 37 °C, 20 mM phosphate buffer pH 7.0, 1-20 mM pNPG.

Chain of RpBgl8 (Reticulitermes perilucifugus) (chain, as listed by the source): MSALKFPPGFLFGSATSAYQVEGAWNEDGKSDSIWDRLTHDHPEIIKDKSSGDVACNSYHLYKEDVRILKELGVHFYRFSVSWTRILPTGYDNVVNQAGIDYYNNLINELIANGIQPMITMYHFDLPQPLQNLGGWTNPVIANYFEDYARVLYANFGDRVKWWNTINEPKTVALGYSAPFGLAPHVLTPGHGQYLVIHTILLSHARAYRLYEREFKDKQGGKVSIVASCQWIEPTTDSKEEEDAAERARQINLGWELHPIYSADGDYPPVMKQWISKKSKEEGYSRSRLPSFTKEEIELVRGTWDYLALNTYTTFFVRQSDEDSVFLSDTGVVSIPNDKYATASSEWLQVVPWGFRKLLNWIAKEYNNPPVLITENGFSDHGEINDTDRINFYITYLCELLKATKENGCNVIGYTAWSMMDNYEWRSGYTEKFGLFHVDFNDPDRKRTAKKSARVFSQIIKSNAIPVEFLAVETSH

What is called Km is the substrate concentration at which the rate is half of its maximum. As a reminder, the kcat is the number of substrate molecules converted per active site and unit of time at saturation. In the case of RpBgl8 (Reticulitermes perilucifugus), the Km is listed as 5.4 mM and the kcat was found to be 10.2 min⁻¹.
